Values quoted from earlier work in patent publication US20200378979.

Tests used:
thrombin (cited work) [1] = target: T1, thrombin (cited work) (UniProt P00734+P00734); assay: FP; settings: 5'-FAM; CITED Van Riesen et al. 2018
thrombin (cited work) [2] = target: T1, thrombin (cited work); assay: ITC; settings: CITED Pagano et al. 2008

Sequence: GGTTGGTGTGGTTGG [5'-FAM-TBA]
- Kd (thrombin (cited work) [1]): 4900 nM

Sequence: GGTTGGTGTGGTTGG [native TBA]
- Kd (thrombin (cited work) [2]): 330 nM
